In article PMC9636275 (Nature Communications, 2022):
Entries after “also recorded” stand apart in the source; their conditions may differ. Read-outs that look alike come from different tables or passages of the source.

Assays:
Acs = assay: In vitro assay for Acs activity; type: biochemical, E. coli; conditions: result in words
Experimental: (§1) This method was performed as described previously. In detail, the purified Acs or PrpE with a final concentration of 0.3 μM were added in the reaction buffer [50 mM HEPES, 10 mM MgCl2, 2.5 mM ATP, 0.5 mM HSCoA, 3 mM phosphoenolpyruvate, 0.1 mM NADH, 1 U pyruvate kinase, 1.5 U lactate dehydrogenase, 5 U myokinase, 10 mM DTT, and 0.2 mM organic acid substrate (acetate, lactate and propionate), PH 7.5] at 25 °C for 30 min. […] Each reaction was performed three biological repetitions.
(§2) Samples dissolved in water were analyzed by an Orbitrap Exploris 480 (Thermo Scientific) mass spectrometer in positive ESI mode using the settings described previously[65],[66]. […] An Orbitrap Exploris 480 (Thermo Fisher Scientific) was employed for MS analysis. Spray voltage was set to 3.5 kV, funnel RF level at 40, and ion transfer tube temperature at 320 °C. Data were collected by Xcalibur (v.4.0.27.19). The orbitrap mass analyzer was used as the MS1 detector with 120,000 resolution. The normalized AGC target and maximum injection time were set at 70% /standard for MS1. The MS2 detector was used 15,000 resolution. Targeted mass setting is lactyl-CoA: 840.1436, acetyl-CoA: 810.1330 and propionate CoA: 824.1487. […] The relative intensity of acyl-CoA was analyzed by Xcalibur (v.4.0.27.19).

whole-cell lysates = assay: Immunoblotting of lysine acylation in whole-cell lysates of overexpressing or deficient strains; type: cell-based, E. coli; conditions: immunoblot; for Kla level: overexpression in E. coli BL21 (λDE3) vs empty pET28a, LB 37 °C
Experimental: All the anti-acyllysine antibodies were purchased from PTM Biolabs Inc. All the synthetic peptides were generated by SciLight Biotechnology, LLC. Antibodies (all diluted 1:1000) and other reagents are listed in Supplementary Data 7.
This method was performed as described previously. In detail, plasmids were constructed to express proteins in E. coli. We used pEASY®-Basic Seamless Cloning and Assembly Kit (TRANS) to construct the plasmids of pET28a-cisY, pET28a-pncB, pET28a-gpmA, pET28a-mdh, pET28a-pykF, and pBR322-pykF-His tag. For mutation, we used the Fast Mutagenesis System (TRANS) to construct the vectors containing point mutated genes. All primers used for PCR are listed in Supplementary Data 7. The constructed vectors of pET28a were transformed into E. coli BL21 (λDE3) for overexpressing strains. The constructed vectors of pBR322 were transformed into E. coli MG1655 and cultured in LB medium containing ampicillin (Amp, 50 μg ml^–1), at 37 °C in shaken flasks at 220 rpm. overnight.
Next, cells were induced with 0.05 mM IPTG at 16 °C overnight followed by harvesting of whole-cell lysates for immunoblotting or protein purification. The proteins were harvested from cultured cells by lysis buffer (20 mM Tris-HCl, pH 8.0, 10 mM MgCl2, 1 mg ml^–1 lysozyme, 50 U ml^–1 nuclease). Then the proteins were mixed with HisPur Ni-NTA Resin and washed by wash buffer (20 mM Na3PO4, 300 mM NaCl, 25 mM imidazole, pH 7.4), the overexpressed proteins were eluted with elution buffer (20 mM Na3PO4, 300 mM NaCl, 250 mM imidazole, PH 7.4). The elution was collected and concentrated using an Amicon Ultra-0.5 Centrifugal Filter Device in storage buffer (100 mM HEPES, 10 mM MgCl2, 7.7 mM KCl, pH 7.0).

PykF = conditions: in vitro; result in words
CobB [1] = molecular target: T1, CobB (Escherichia coli, UniProt P75960); conditions: for kcat: 37 °C, MALDI-TOF MS, mean ± SEM; for kcat / kcat/Km: n = 3
T1 sequence (P75960 1-279): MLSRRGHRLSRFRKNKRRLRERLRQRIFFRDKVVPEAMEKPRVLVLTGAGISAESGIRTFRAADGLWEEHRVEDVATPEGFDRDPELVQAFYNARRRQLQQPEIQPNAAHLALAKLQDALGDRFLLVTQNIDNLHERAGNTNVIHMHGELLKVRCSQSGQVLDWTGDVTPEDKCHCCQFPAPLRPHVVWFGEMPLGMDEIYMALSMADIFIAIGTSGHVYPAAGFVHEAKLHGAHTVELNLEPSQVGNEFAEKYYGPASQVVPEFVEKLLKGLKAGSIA
Experimental: (§3) This method was described previously. […] Meanwhile, YiaC was incubated with unmodified peptide ([…], from PncB) in the YiaC reaction buffer. The concentrations of the peptides were 5, 10, 16, 32, 60, and 285 uM, and reaction time were 1, 5, 15, and 30 min. […] 0.1 μl samples mixed with 2,5-dihydroxybenzoic acid (DHB) were analyzed by MS. An acceleration voltage of 20 kV was used. MS data were analyzed using FlexAnalysis software for spectral processing and peak detection. The enzyme kinetics were analyzed by Prism GraphPad 8.0 software.

CobB [2] = molecular target: T1, CobB; conditions: 50 μM peptide, 1 μM CobB, pH 8.5, 37 °C, 2 h; with 1 mM NAD^+ unless stated
PykF, GpmA, Mdh = conditions: 15 μM CobB, 20 μM substrate, 25 °C, 10 h
Experimental: The purified recombinant YiaC (15 μM) and candidate substrate proteins (GltA, PncB, 20 μM) were incubated in YiaC reaction buffer at 25 °C for 10 h. […] The reaction products were analyzed by Western blotting with anti-lactylation.

PrpE = assay: In vitro assay for PrpE activity; type: biochemical, E. coli; conditions: result in words
Experimental: as §1, §2

YiaC [3] = assay: Kinetic parameters of YiaC, MALDI-TOF MS; type: biochemical, E. coli; conditions: for kcat: peptide from PncB, MALDI-TOF MS
Experimental: as §3

GltA, PncB = assay: Lactylation reaction of recombinant proteins by YiaC, immunoblotting; type: biochemical, E. coli; conditions: 15 μM YiaC, 20 μM substrate, lactyl-CoA 1 mM, 25 °C, 10 h
YiaC [4] = assay: YiaC lactylation/acetylation of synthetic peptide, LC-MS; type: biochemical, E. coli; conditions: 50 μM TICHDKAFVR, 5 μM YiaC, 2 h
[5] = Deacetylation, Michaelis-Menten best fit, Supplementary Data 2
[6] = deacetylation, AETAEK(ac)YGDEQVK
[7] = delactylation, AETAEK(la)YGDEQVK
[8] = overexpression in E. coli BL21 (λDE3) vs pET28a

B1: Acs: acetyl-CoA synthetase (protein, UniProt P27550 1-652, looked up)
Acetyl-coenzyme A synthetase: MSQIHKHTIPANIADRCLINPQQYEAMYQQSINVPDTFWGEQGKILDWIKPYQKVKNTSFAPGNVSIKWYEDGTLNLAANCLDRHLQENGDRTAIIWEGDDASQSKHISYKELHRDVCRFANTLLELGIKKGDVVAIYMPMVPEAAVAMLACARIGAVHSVIFGGFSPEAVAGRIIDSNSRLVITSDEGVRAGRSIPLKKNVDDALKNPNVTSVEHVVVLKRTGGKIDWQEGRDLWWHDLVEQASDQHQAEEMNAEDPLFILYTSGSTGKPKGVLHTTGGYLVYAALTFKYVFDYHPGDIYWCTADVGWVTGHSYLLYGPLACGATTLMFEGVPNWPTPARMAQVVDKHQVNILYTAPTAIRALMAEGDKAIEGTDRSSLRILGSVGEPINPEAWEWYWKKIGNEKCPVVDTWWQTETGGFMITPLPGATELKAGSATRPFFGVQPALVDNEGNPLEGATEGSLVITDSWPGQARTLFGDHERFEQTYFSTFKNMYFSGDGARRDEDGYYWITGRVDDVLNVSGHRLGTAEIESALVAHPKIAEAAVVGIPHNIKGQAIYAYVTLNHGEEPSPELYAEVRNWVRKEIGPLATPDVLHWTDSLPKTRSGKIMRRILRKIAAGDTSNLGDTSTLADPGVVEKLLEEKQAIAMPS
- formation of lactyl-CoA from lactate (Acs): neither Acs nor PrpE could catalyze the formation of lactyl-CoA from lactate

B2: CobB: NAD-dependent deacylase; lysine delactylase (protein)
chain: MLSRRGHRLSRFRKNKRRLRERLRQRIFFRDKVVPEAMEKPRVLVLTGAGISAESGIRTFRAADGLWEEHRVEDVATPEGFDRDPELVQAFYNARRRQLQQPEIQPNAAHLALAKLQDALGDRFLLVTQNIDNLHERAGNTNVIHMHGELLKVRCSQSGQVLDWTGDVTPEDKCHCCQFPAPLRPHVVWFGEMPLGMDEIYMALSMADIFIAIGTSGHVYPAAGFVHEAKLHGAHTVELNLEPSQVGNEFAEKYYGPASQVVPEFVEKLLKGLKAGSIA
modifications: left off: His tag (from the vector pET28a and the Ni-NTA purification), end not stated, state not stated
notes: NAD-dependent deacylase; lysine delactylase
- Kla level (whole-cell lysates): significant decrease in Kla levels
- PykF activity after CobB erasing K382la (PykF): enhanced PykF activity in vitro
- Km (CobB [1]; [5]): 25.4 µM
- Vmax (CobB [1]; [5]): 0.01822
- Vmax (CobB [1]; Delactylation, Michaelis-Menten best fit, Supplementary Data 2): 0.02447
- kcat (CobB [1]; [6]): 0.97 ± 0.02 s⁻¹
- kcat/Km (CobB [1]; [6]): 52000 M⁻¹ s⁻¹
- kcat (CobB [1]; [7]): 0.99 ± 0.04 s⁻¹
- kcat/Km (CobB [1]; [7]): 39000 M⁻¹ s⁻¹
- delactylation of peptide by CobB (CobB [2]): efficiently catalyzed the hydrolysis of the lactyl peptide in the presence of NAD^+; also recorded: the delactylated peptide was not detected in the reaction without NAD^+
- delactylation of candidate proteins (PykF, GpmA, Mdh): can clearly delactylate pyruvate kinase I (PykF), 2,3-bisphosphoglycerate-dependent phosphoglycerate mutase (GpmA) and malate dehydrogenase (Mdh) in vitro

B3: PrpE: propionate CoA synthetase (protein, UniProt P77495 1-628, looked up)
Propionate--CoA ligase: MSFSEFYQRSINEPEQFWAEQARRIDWQTPFTQTLDHSNPPFARWFCEGRTNLCHNAIDRWLEKQPEALALIAVSSETEEERTFTFRQLHDEVNAVASMLRSLGVQRGDRVLVYMPMIAEAHITLLACARIGAIHSVVFGGFASHSVAARIDDAKPVLIVSADAGARGGKIIPYKKLLDDAISQAQHQPRHVLLVDRGLAKMARVSGRDVDFASLRHQHIGARVPVAWLESNETSCILYTSGTTGKPKGVQRDVGGYAVALATSMDTIFGGKAGSVFFCASDIGWVVGHSYIVYAPLLAGMATIVYEGLPTWPDCGVWWTIVEKYQVSRMFSAPTAIRVLKKFPTAEIRKHDLSSLEVLYLAGEPLDEPTASWVSNTLDVPVIDNYWQTESGWPIMAIARGLDDRPTRLGSPGVPMYGYNVQLLNEVTGEPCGVNEKGMLVVEGPLPPGCIQTIWGDDGRFVKTYWSLFSRPVYATFDWGIRDADGYHFILGRTDDVINVAGHRLGTREIEESISSHPGVAEVAVVGVKDALKGQVAVAFVIPKESDSLEDRDVAHSQEKAIMALVDSQIGNFGRPAHVWFVSQLPKTRSGKMLRRTIQAICEGRDPGDLTTIDDPASLDQIRQAMEE
- formation of lactyl-CoA from lactate (PrpE): neither Acs nor PrpE could catalyze the formation of lactyl-CoA from lactate

B4: YiaC: GNAT family protein; lysine lactylase (protein, UniProt P37664 1-146, looked up)
Peptidyl-lysine …: MIREAQRSELPAILELWLESTTWGHPFIKANYWRDCIPLVRDAYLANAQNWVWEEDGKLLGFVSIMEGRFLAAMFVAPKAVRRGIGKALMQYVQQRHPHLMLEVYQKNQPAINFYQAQGFHIVDCAWQDETQLPTWIMSWPVVQTL
- Kla level (whole-cell lysates): extensive and obvious increase in Kla levels
- Kac level (whole-cell lysates; [8]): could upregulate Kac
- succinylation level (whole-cell lysates; [8]): did not cause a change in succinylation
- Vmax (YiaC [3]; Acetylation, Michaelis-Menten best fit, Supplementary Data 2): 0.005773
- Km (YiaC [3]; Acetylation, Michaelis-Menten best fit, Supplementary Data 2, read-out: Km): 28.7 µM
- Vmax (YiaC [3]; Lactylation, Michaelis-Menten best fit, Supplementary Data 2): 0.01667
- Km (YiaC [3]; Lactylation, Michaelis-Menten best fit, Supplementary Data 2, read-out: Km): 26.6 µM
- kcat/Km (YiaC [3]; acetylation, n = 3): 8000 M⁻¹ s⁻¹
- Km (YiaC [3]; acetylation, peptide from PncB 5-285 μM, mean ± SEM, n = 3, read-out: Km for peptide): 28.7 ± 1.2 µM
- kcat (YiaC [3]; acetylation, mean ± SEM, n = 3): 0.23 ± 0.04 s⁻¹
- kcat/Km (YiaC [3]; lactylation, n = 3): 36000 M⁻¹ s⁻¹
- Km (YiaC [3]; lactylation, peptide from PncB 5-285 μM, mean ± SEM, n = 3, read-out: Km for peptide): 26.6 ± 1.1 µM
- kcat (YiaC [3]; lactylation, mean ± SEM, n = 3): 0.97 ± 0.03 s⁻¹
- lactylation of candidate proteins (GltA, PncB): can effectively lactylate citrate synthase (GltA) and nicotinate phosphoribosyltransferase (PncB)
- lactylation of peptide by YiaC (YiaC [4]; 0.1 mM lactyl-CoA, pH 7, 37 °C): can catalyze lactylation in vitro
- lactylation compared with acetylation by YiaC (YiaC [4]; 37 °C): likely more efficient for lactylation
